Data taken from publication PMC12181280 (NPJ Biofilms and Microbiomes, 2025).

Tests used:
[1] = molecular target: S. aureus GudB (glutamate dehydrogenase) (S. aureus (endogenous in USA300 JE2)); assay: native gel or EMSA
SEC = molecular target: the molecule itself; assay: SEC
native gel or EMSA = molecular target: the molecule itself; assay: native gel or EMSA

| Molecule | stoichiometry N (SEC) | other results |
| --- | --- | --- |
| S. aureus GudB (glutamate dehydrogenase) (enzyme) | – | stoichiometry N [1]: 3 |
| N-terminally His-tagged WT Bcd (B. subtilis Val/Leu/Ile dehydrogenase) (enzyme, UniProt P54531 1-364, looked up) MELFKYMEKYDYEQLVFCQDEQSGLKAIIAIHDTTLGPALGGTRMWTYENEEAAIEDALRLARGMTYKNAAAGLNLGGGKTVIIGDPRKDKNEEMFRAFGRYIQGLNGRYITAEDVGTTVEDMDIIHDETDYVTGISPAFGSSGNPSPVTAYGVYRGMKAAAKAAFGTDSLEGKTIAVQGVGNVAYNLCRHLHEEGANLIVTDINKQSVQRAVEDFGARAVDPDDIYSQDCDIYAPCALGATINDDTIKQLKAKVIAGAANNQLKETRHGDQIHEMGIVYAPDYVINAGGVINVADELYGYNAERALKKVEGIYGNIERVLEISQRDGIPAYLAADRLAEERIERMRRSRSQFLQNGHSVLSRR | 6 | – |
| N-terminally His-tagged Bcd(K80A) (enzyme, B. subtilis, UniProt P54531 1-364, looked up) MELFKYMEKYDYEQLVFCQDEQSGLKAIIAIHDTTLGPALGGTRMWTYENEEAAIEDALRLARGMTYKNAAAGLNLGGGATVIIGDPRKDKNEEMFRAFGRYIQGLNGRYITAEDVGTTVEDMDIIHDETDYVTGISPAFGSSGNPSPVTAYGVYRGMKAAAKAAFGTDSLEGKTIAVQGVGNVAYNLCRHLHEEGANLIVTDINKQSVQRAVEDFGARAVDPDDIYSQDCDIYAPCALGATINDDTIKQLKAKVIAGAANNQLKETRHGDQIHEMGIVYAPDYVINAGGVINVADELYGYNAERALKKVEGIYGNIERVLEISQRDGIPAYLAADRLAEERIERMRRSRSQFLQNGHSVLSRR | 6 | – |
| Bcd, native complex in B. subtilis NCIB3610 cell lysate (enzyme, B. subtilis (endogenous in NCIB3610), UniProt P54531 1-364, looked up) MELFKYMEKYDYEQLVFCQDEQSGLKAIIAIHDTTLGPALGGTRMWTYENEEAAIEDALRLARGMTYKNAAAGLNLGGGKTVIIGDPRKDKNEEMFRAFGRYIQGLNGRYITAEDVGTTVEDMDIIHDETDYVTGISPAFGSSGNPSPVTAYGVYRGMKAAAKAAFGTDSLEGKTIAVQGVGNVAYNLCRHLHEEGANLIVTDINKQSVQRAVEDFGARAVDPDDIYSQDCDIYAPCALGATINDDTIKQLKAKVIAGAANNQLKETRHGDQIHEMGIVYAPDYVINAGGVINVADELYGYNAERALKKVEGIYGNIERVLEISQRDGIPAYLAADRLAEERIERMRRSRSQFLQNGHSVLSRR | – | stoichiometry N (native gel or EMSA): 6 |
